The source of these data is patent US20240238420A1 (WUHAN UNIVERSITY, published 2024).

Assay [1] has as its target CD123 combined mutant R84Q-V85I (Homo sapiens (Human)) (UniProt P26951). Nature of the assay: scFv-luciferase binding to transfected HEK 293T cells (FIG. 4A).
The target of assay [2] is CD123 combined mutant R84Q-V85M (Homo sapiens (Human)) (UniProt P26951). The description is as above.
The next assay concerns the target T1, wild-type CD33 protein (Homo sapiens (Human), UniProt P20138 18-364).
T1 construct: Expressed in transfected HEK 293T cells; A flag tag is mentioned for the Western blot constructs; no signal peptide limits are stated; also called Siglec3
Nature of the assay: scFv-luciferase binding to HEK 293T cells transfected with wildtype or mutant CD33 (RLU). On the procedure:
FIG. 1A-D. Determination of epitopes of CD33 that mediate the interaction by anti-CD33 scFv clone my9.6 or HM195. (A) Binding affinity of indicated CD33 mutations with anti-CD33 scFV clone my9.6. HEK 293T cells were transfected with wildtype or indicated CD33 mutant and then incubated with anti-CD33 scFV-luciferase fusion proteins, RLU: relative luminescence units. (B) Western blot of CD33 expression. HEK293T cells were transfected with flag tagged wild-type or indicated CD33 mutants. (C) Binding affinity of additional CD33 mutations. RLU: relative luminescence units (D) Western blot of CD33 expression. HEK293T cells were transfected with flag tagged wild-type or indicated CD33 mutants.
HEK 293T cells were transfected with wildtype or certain CD33 mutants and then incubated with anti-CD33 scFV-luciferase fusion proteins. The mutated residues included W22, C41, W60, I105, D112, Y116, F118, S131, and P132. The tested antibodies included my9.6 and HM195. […] FIGS. 1B and […] present Western blot images of CD33 expression from the transfected cells.

Another assay addresses T2, wild-type CD123 protein (Homo sapiens (Human), UniProt P26951 19-378).
T2 construct: no signal peptide limits are stated; also called alpha chain of interleukin-3 receptor
Nature of the assay: scFv-luciferase binding to HEK 293T cells transfected with wildtype or mutant CD123. As for the experimental part:
HEK 293T cells were transfected with wildtype or indicated CD123 mutant and then incubated with anti-CD123 scFv-luciferase fusion proteins. (B) Western blot of CD123 expression. HEK293T cells were transfected with flag tagged wild-type or indicated CD123 mutants.
HEK 293T cells were transfected with wildtype or indicated CD123 mutant and then incubated with anti-CD123 scFv-luciferase fusion proteins. […] The expression of these mutants was confirmed by Western blot (FIG. 3B).

Sequence of CD123 combined mutant R84Q-V85M (Homo sapiens (Human)) (P26951 19-378 R84Q/V85M limits assumed): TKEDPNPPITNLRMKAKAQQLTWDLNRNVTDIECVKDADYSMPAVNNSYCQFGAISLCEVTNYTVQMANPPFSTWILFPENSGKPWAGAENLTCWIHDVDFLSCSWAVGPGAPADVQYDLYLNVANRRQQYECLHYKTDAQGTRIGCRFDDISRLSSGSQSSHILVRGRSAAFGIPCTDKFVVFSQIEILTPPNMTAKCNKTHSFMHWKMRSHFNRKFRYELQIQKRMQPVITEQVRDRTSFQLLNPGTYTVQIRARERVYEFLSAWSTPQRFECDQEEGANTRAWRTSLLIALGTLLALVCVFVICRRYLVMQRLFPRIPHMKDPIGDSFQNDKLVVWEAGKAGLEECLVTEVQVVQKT
T2 sequence (P26951 19-378 limits assumed): as the sequence (P26951 19-378 R84Q/V85M limits assumed) above, with Q66R, M67V counted along it
T1 sequence (P20138 18-364 limits assumed): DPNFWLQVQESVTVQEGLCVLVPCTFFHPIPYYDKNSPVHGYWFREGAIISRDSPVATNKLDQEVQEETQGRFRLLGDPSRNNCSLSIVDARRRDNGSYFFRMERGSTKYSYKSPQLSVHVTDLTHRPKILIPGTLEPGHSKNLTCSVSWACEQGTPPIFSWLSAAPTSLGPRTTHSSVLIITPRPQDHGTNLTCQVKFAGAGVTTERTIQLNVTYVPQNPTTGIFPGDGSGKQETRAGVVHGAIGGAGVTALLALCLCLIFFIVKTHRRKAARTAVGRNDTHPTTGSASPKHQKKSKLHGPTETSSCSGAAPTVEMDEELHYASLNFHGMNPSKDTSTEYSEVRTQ
Sequence of CD123 combined mutant R84Q-V85I (Homo sapiens (Human)) (P26951 19-378 R84Q/V85I limits assumed): as the sequence (P26951 19-378 R84Q/V85M limits assumed) above, with M67I counted along it

As to “anti-CD123 scFv clone CSL362, scFv-luciferase fusion protein”, the fold decrease of affinity (combined mutant against reference) in assay [1] and in assay [2] was 100 fold each time.

B1: anti-CD33 scFv clone HM195, scFv-luciferase fusion protein (scFv, V domains shown)
VH: QVQLVQSGAEVKKPGSSVKVSCKASGYTFTDYNMHWVRQAPGQGLEWIGYIYPYNGGTGYNQKFKSKATITADESTNTAYMELSSLRSEDTAVYYCARGRPAMDYWGQGTLVTVSS
VL: DIQMTQSPSSLSASVGDRVTITCRASESVDNYGISFMNWFQQKPGKAPKLLIYAASNQGSGVPSRFSGSGSGTDFTLTISSLQPDDFATYYCQQSKEVPWTFGQGTKVEIK
notes: Tested as an scFv-luciferase fusion protein
Consider B1, for which the binding result with wild-type CD33 protein is “binds”.

B2: anti-CD123 scFv clone 32716, scFv-luciferase fusion protein (scFv, V domains shown)
VH: QIQLVQSGPELKKPGETVKISCKASGYIFTNYGMNWVKQAPGKSFKWMGWINTYTGESTYSADFKGRFAFSLETSASTAYLHINDLKNEDTATYFCARSGGYDPMDYWGQGTSVTVSS
VL: DIVLTQSPASLAVSLGQRATISCRASESVDNYGNTFMHWYQQKPGQPPKLLIYRASNLESGIPARFSGSGSRTDFTLTINPVEADDVATYYCQQSNEDPPTFGAGTKLELK
For B2, the binding result with wild-type CD123 protein was “binds”.
